Data reported in patent US20060252116A1, “Icam-4 binding sites” (priority 2002, published 2006).
Where a chain is given by its changes, count along the chain named. Numbers in names are those of the source.

B1: F18A mutant: human ICAM-4Fc fusion protein with point mutation F18A (protein)
chain: AQSPKGSPLAPSGTSVPAWVRMSPEFVAVQPGKSVQLNCSNSCPQPQNSSLRTPLRQGKTLRGPGWVSYQLLDVRAWSSLAHCLVTCAGKTRWATSRITAYKPPHSVILEPPVLKGRKYTLRCHVTQVFPVGYLVVTLRHGSRVIYSESLERFTGLDLANVTLTYEFAAGPRDFWQPVICHARLNLDGLVVRNSSAPITLMLAWSPAPTA
modifications: left off: a dimerising Fc or GST
notes: human ICAM-4Fc fusion protein with point mutation F18A
B2: W19A mutant: human ICAM-4Fc fusion protein with point mutation W19A (protein)
chain: B1 chain with A18F, W19A
modifications: left off: a dimerising Fc or GST
notes: human ICAM-4Fc fusion protein with point mutation W19A
B3: T95V mutant: human ICAM-4Fc fusion protein with point mutation T95V (protein)
chain: B1 chain with A18F, T95V
modifications: left off: a dimerising Fc or GST
notes: human ICAM-4Fc fusion protein with point mutation T95V
B4: S96A mutant: human ICAM-4Fc fusion protein with point mutation S96A (protein)
chain: B1 chain with A18F, S96A
modifications: left off: a dimerising Fc or GST
notes: human ICAM-4Fc fusion protein with point mutation S96A
B5: K118E mutant: human ICAM-4Fc fusion protein with point mutation K118E (protein)
chain: B1 chain with A18F, K118E
modifications: left off: a dimerising Fc or GST
notes: human ICAM-4Fc fusion protein with point mutation K118E
B6: A94L mutant: human ICAM-4Fc fusion protein with point mutation A94L (protein)
chain: B1 chain with A18F, A94L
modifications: left off: a dimerising Fc or GST
notes: human ICAM-4Fc fusion protein with point mutation A94L
B7: N160A mutant: human ICAM-4Fc fusion protein with point mutation N160A (protein)
chain: B1 chain with A18F, N160A
modifications: left off: a dimerising Fc or GST
notes: human ICAM-4Fc fusion protein with point mutation N160A
B8: T162V mutant: human ICAM-4Fc fusion protein with point mutation T162V (protein)
chain: B1 chain with A18F, T162V
modifications: left off: a dimerising Fc or GST
notes: human ICAM-4Fc fusion protein with point mutation T162V
B9: V20T mutant: human ICAM-4Fc fusion protein with point mutation V20T (protein)
chain: B1 chain with A18F, V20T
modifications: left off: a dimerising Fc or GST
notes: human ICAM-4Fc fusion protein with point mutation V20T
B10: R97E mutant: human ICAM-4Fc fusion protein with point mutation R97E (protein)
chain: B1 chain with A18F, R97E
modifications: left off: a dimerising Fc or GST
notes: human ICAM-4Fc fusion protein with point mutation R97E
B11: R92E mutant: human ICAM-4Fc fusion protein with point mutation R92E (protein)
chain: B1 chain with A18F, R92E
modifications: left off: a dimerising Fc or GST
notes: human ICAM-4Fc fusion protein with point mutation R92E
B12: W66A mutant: human ICAM-4Fc fusion protein with point mutation W66A (protein)
chain: B1 chain with A18F, W66A
modifications: left off: a dimerising Fc or GST
notes: human ICAM-4Fc fusion protein with point mutation W66A

What follows are molecules tested on HT1080 cells (αv integrin) (assay: Adhesion of HT1080 cells to mutant human ICAM-4Fc). Conditions: FIG. 4; single residue mutants of human ICAM-4Fc, titrated coating concentration.
Assay type: cell-based
Description: Cell adhesion assays were performed as described in Spring et al. 2001 (supra). Immulon4 96 well plates (Dynex Technologies, Billingshurst, United Kingdom) were coated with 1 μg/well goat-antihuman-Fc (Sigma, Poole, United Kingdom) for 24 hours at 4° C., washed three times with PBS and coated with an Fc fusion ICAM-4 protein for 18 hours at 4° C. before blocking with 0.4% BSA PBS for 2 hours at 22° C. Cells were labelled with 10 μg/ml 2′,7′-bis-(2-carboxyethyl)-5-(and-6-) carboxyfluorescein acetoxymethyl ester in assay buffer (IMEM, 2 mM EGTA, 10 μg/ml human ivIgG) for 15 minutes at 37° C. HT1080 cells were activated with 80 μM phorbol myristate acetate prior to both cells being washed with assay buffer containing 2 mM Mn^2+. Cells, at 5×10^4 cells per well, were added to the ICAM-4Fc-coated plates for 30 minutes at 37° C., prior to being given repeated washes in assay buffer and read on a fluorescence microplate reader (excitation 485 nm, emission 530 nm). The percentage of bound cells was calculated after each wash. Peptide inhibition was performed by incubating the cells with 500 μM peptide at 0° C. for 15 minutes ahead of their addition, still in the presence of 500 μM peptide to the ICAM-4Fc coated plates. In peptide inhibition studies the appropriate ICAM-4Fc coating concentration for each cell line was pre-determined by titration of ICAM-4Fc and the lowest concentration at which maximal binding was achieved was used to coat the plates
Point mutations were inserted into ICAM-4 in pIg vector (see Simmons D L, 1993, Cloning cell surface molecules by transient expression in mammalian cells, In: Hartley D A, ed. Cellular interactions in development. New York, N.Y.:IRL press, 93-127) by PCR amplification over two stages. Oligonucleotides (see “Mutagenesis primers” below) containing mismatched bases, together with 5′-[…] (SEQ ID NO: 14) and 3′-[…] (SEQ ID NO: 15) primers were used to generate two overlapping products. Following gel purification the two overlapping PCR products were annealed together before final amplification using the 5′ and 3′ primers. The final PCR product was restricted and ligated into pIg vector. All mutant clones were verified by sequence analysis. Mutant ICAM-4Fc proteins were expressed in COS-7 cells as described in Simmons D L (1993, supra), and purified from culture supernatant on protein A-Sepharose.
In the case of B1, the “adhesion of HT1080 cells to mutant ICAM-4Fc compared with wild-type” value (“adhesion … compared with wild-type” below) is reported as “decrease in binding”.
With B2 the “adhesion … compared with wild-type” value was “decrease in binding”.
B3 was tested, and the “adhesion … compared with wild-type” value was “decrease in binding”.
For B4, the “adhesion … compared with wild-type” value was “decrease in binding”.
B5 was tested, and the “adhesion … compared with wild-type” value was “decrease the level of adhesion”.
In the case of B6, the “adhesion … compared with wild-type” value is reported as “decrease in binding”.
In the case of B7, the “adhesion … compared with wild-type” value is reported as “elevated level of adhesion”.
For B8, the “adhesion … compared with wild-type” value was “elevated level of adhesion”.
With B9 the “adhesion … compared with wild-type” value was “decrease in binding”.
In the case of B10, the “adhesion … compared with wild-type” value is reported as “decrease in binding”.
With B11 the “adhesion … compared with wild-type” value was “decrease in binding”.
In the case of B12, the “adhesion … compared with wild-type” value is reported as “decrease the level of adhesion”.
